Source: US10947270B2, “Targeted prodrug cytosine deaminase fusion carrier and application thereof” (National Yang-Ming University, priority 2015, dated 2021)
Several values for one entry are separate records, joined by “and”; a condition that tells them apart may be missing. Equal entries are not always repeated. Where two headings read alike, the source gives them in different places.

B1: DTPA-yCD: yCD protein modified by the metal chelating agent DTPA (conjugate)
chain: MVVTGGMASKWDQKGMDIAYEEAALGYKEGGVPIGGCLINNKDGSVLGRGHNMRFQKGSATLHGEISTLENCGRLEGKVYKDTTLYTTLSPCDMCTGAIIMYGIPRCVVGENVNFKSKGEKYLQTRGHEVVVVDDERCKKIMKQFIDERPQDWFEDIGELEHHHHHH
B2: In-DTPA-yCD: DTPA-yCD treated with the stable isotope of indium under simulated marking conditions (conjugate)
chain: B1 chain
B3: ^111In-DTPA-yCD: indium-111 labeled DTPA-yCD protein (conjugate, UniProt Q12178 1-158, looked up)
Cytosine deaminase: MVTGGMASKWDQKGMDIAYEEAALGYKEGGVPIGGCLINNKDGSVLGRGHNMRFQKGSATLHGEISTLENCGRLEGKVYKDTTLYTTLSPCDMCTGAIIMYGIPRCVVGENVNFKSKGEKYLQTRGHEVVVVDDERCKKIMKQFIDERPQDWFEDIGE
modifications: 111In-DTPA label
notes: indium-111 labeled DTPA-yCD protein
B4: DTPA-RGD4C-yCD: RGD4C-yCD protein modified by the metal chelating agent DTPA (conjugate)
chain: MACDCRGDCFCVTGGMASKWDQKGMDIAYEEAALGYKEGGVPIGGCLINNKDGSVLGRGHNMRFQKGSATLHGEISTLENCGRLEGKVYKDTTLYTTLSPCDMCTGAIIMYGIPRCVVGENVNFKSKGEKYLQTRGHEVVVVDDERCKKIMKQFIDERPQDWFEDIGELEHHHHHH
B5: In-DTPA-RGD4C-yCD: DTPA-RGD4C-yCD treated with the stable isotope of indium under simulated marking conditions (conjugate)
chain: B4 chain

What was measured:
[1] = Enzyme kinetic analysis of yCD series proteins after DTPA modification, marking and purification; type: biochemical; conditions: for Vmax compared with the original enzyme activity: after EDTA with a 10-fold molar excess of protein
Source text: The enzyme activity of yCD is not affected by DTPA modification.
FIGS. 24A-24B show the kinetic curve of yCD series protein modified, labeled and purified by DTPA. The enzyme activity of the two proteins is not affected by the labeling conditions. After adding EDTA with a 10-fold molar excess of protein, and it is competitively purified, In-DTPA-yCD compared with the original enzyme activity.
The curve and enzyme kinetic parameters (see FIG. 18 and Table 13) are fitted by the […] protein enzyme kinetics through the Michaelis-Menten formula in the Graph prism program.
Before the protein is labeled by radioisotope, its enzyme function must be determined, and based on the original enzyme function, it should be examined whether it will be affected during the radioactive marking process. The curve and enzyme kinetic parameters of protein are fitted by the Michaelis-Menten formula in the Graph prism program. […] Whether the yCD and RGD4C-yCD protein detected by the same method will be affected under the conditions of DTPA modification, marking and purification. […] After the completion of the radioactive metal mark, it is necessary to add EDTA of 10-fold protein Moire number and react at room temperature for 1 hour to compete for the radioactive metal isotope indium which is not chelated on DTPA. The EDTA in this step also has the chance to chelate the metal zinc ion of the enzyme catalytic center, the enzyme activity is impaired, so it is necessary to analyze the enzyme activity of In-DTPA-yCD and In-RGD4C-yCD protein after competition with EDTA. After the EDTA competitive reaction is completed, the enzyme kinetics analysis can be carried out by reducing the EDTA molecule weight through membrane centrifugation method and by replacing the solution with pH 7.0. […] The curve and receptor binding ability parameters of the protein and integrin αvβ3 are fitted under the conditions of DTPA modification, marking and purification by the One site-Specific binding formula in the Graph prism program (see FIG. 25 and Table 18). […] Although the two proteins after marking are greatly affected by the enzyme activity, they still have good binding ability to the integrin αvβ3 receptor. In consideration of the indispensability of EDTA for radiochemical purity, it retains a considerable amount of enzyme activity. In addition, the effect of integrin αvβ3 receptor binding ability is minimal, in combination of cell uptake, biodistribution and angiography experiment, focusing on the evaluation of target results, and the subsequent biological experiment is still carried out by the marking and purification conditions.

[2] = type: physicochemical
Description: The radiochemical purity of ^111In-DTPA-yCD and ^111In-DTPA-RGD4C-yCD are greater than 95% after marking and purification. Both are stored in HEPES buffer liquid (4° C.) for 48 hours, and the radiochemical purity is still higher than 85% (see FIG. 26). Both are placed in fetal bovine serum (37° C.) to simulate their stability in vivo. After 48 hours, the radiochemical purity of both is about 80%. It is shown that radioactive metal indium-111 is stably chelated on DTPA.

[3] = parameters: species or system nude mice; conditions: mouse, in vivo
Description: The arrow is marked as a tumor.
In in-vitro cell experiment, the binding ability of ^111In-DTPA-RGD4C-yCD and the integrin αvβ3 receptor on the cell membrane has been verified. In order to know whether the drug can show its target effect in vivo, integrin αvβ3 is seeded subcutaneously in the right side of nude mice. After the high-expression U87MG tumor cells are grown to 100 mm^3, 60-70 μCi (3-3.5 μg) of ^111In-DTPA-yCD and ^111In-DTPA-RGD4C-yCD are injected directly into the tumor, the images are collected by microSPECT/CT after 1, 4, 24, 48 hours. It can be seen from the image (see FIG. 31) that the drug retention in the ^111In-DTPA-RGD4C-yCD group (orange arrow) is better than that in the ^111In-DTPA-yCD, and the target ligand RGD4C is missing. ^111In-DTPA-yCD enters the systemic blood circulation system within 1 hour and is metabolized by normal organs. From FIG. 31, it can be seen that the kidney is the main metabolic organ of these two drugs. […] After 24-48 hours, the amount of accumulation in the tumor is running out. On the contrary, ^111In-DTPA-RGD4C-yCD is bound with integrin αvβ3 on tumor cells, then the ratio of drug entering the systemic blood circulation is reduced, and the metabolic rate is slow.

[4] = parameters: species or system nude mice; conditions: mouse, in vivo; remark: listed apart in the source
Description: ES-2-luc tumor nude mice is intraperitoneally injected with 50 μCi (2.5 μg) ^111In-DTPA-yCD and ^111In-DTPA-RGD4C-yCD for 1, 4 and 24 hours, then organs are collected and their radioactivity is measured to obtain biodistribution, as shown in Table 19 and Table 20. […] In addition to the part accumulated in the tumor, another part of the drug is absorbed back into the blood circulation system by the peritoneal blood vessels. […] The pancreatic radioactivity of the two drugs is observed after 1 hour of injection. The pancreatic radioactivity of ^111In-DTPA-RGD4C-yCD (8.06±0.88% ID/g) is higher than that of ^111In-DTPA-yCD (3.91±0.36% ID/g), it is suspected that tumor cells invade the pancreas.

[5] = after 10x EDTA competition and purification

Row | Molecule | Km [1] | Vmax [1] [µM/min] | Km [1, 5] [µM] | Vmax [1, 5] [µM/min] | Vmax compared with the original enzyme activity [1] [%] | radiochemical purity after incubation [2] | time to enter the systemic blood circulation system [3] [h] | radioactivity in the peritoneal cavity reduced to (fraction of 1 hour value) [4] | Vmax compared with the original protein ([1]; after DTPA modification) [%] | Vmax ([1]; listed as DTPA- RGD4C-yCD) [µM/min]
1 | B1 | 840 µM and 1040 µM | 286.8 ± 10.80 | – | – | – | – | – | – | – | –
2 | B2 | 1120 ± 58.7 µM | 270.0 ± 6.165 | 1930 ± 286 | 125.2 ± 9.652 | 47 | – | – | – | – | –
3 | B3 | – | – | – | – | – | about 80% | ≤ 1 | ½ | – | –
4 | B4 | 1160 ± 108 µM | 224.6 ± 8.408 | – | – | – | – | – | – | 80 | 224.6 ± 8.408
5 | B5 | 956 ± 76.8 µM | 226.8 ± 6.918 | 1630 ± 273 | 117.7 ± 9.510 | 40 | – | – | – | – | –
